Molecular target: the molecule itself
Assay: solution-state diffusion-ordered NMR spectroscopy

B1: isolated cytoplasmic (soluble) C-terminal domain of CzcD (CzcD_(209-316)) (domain or fragment, Cupriavidus metallidurans CH34, UniProt P13512 209-316, looked up)
chain: EGVPDDVDLAEVEKQILATPGVKSFHDLHIWALTSGKASLTVHVVNDTAVNPEMEVLPELKQMLADKFDITHVTIQFELAPCEQADAAQHFNASPALVGSKSLAAGGN
- stoichiometry N: 2
